Data published in patent US20090138978A1 (GENERAL HOSPITAL, published 2009).
Each block holds one molecule with its values, some of them ahead of it.

Assays:
[1] = molecular target: human PDX-1/IPF-1 mutant P63fsdelC, [35S]-radiolabeled in vitro translated (human) (UniProt P52945); assay: GST pull-down with [35S]-labelled human PDX-1 proteins; reference is wild-type human PDX-1
[2] = molecular target: p300 (full-length histone acetyltransferase and nuclear receptor coactivator) (UniProt Q09472); assay: cell-based or functional assay
Chain of p300 (full-length histone acetyltransferase and nuclear receptor coactivator) (UniProt Q09472) (Q09472 2-2414 limits assumed): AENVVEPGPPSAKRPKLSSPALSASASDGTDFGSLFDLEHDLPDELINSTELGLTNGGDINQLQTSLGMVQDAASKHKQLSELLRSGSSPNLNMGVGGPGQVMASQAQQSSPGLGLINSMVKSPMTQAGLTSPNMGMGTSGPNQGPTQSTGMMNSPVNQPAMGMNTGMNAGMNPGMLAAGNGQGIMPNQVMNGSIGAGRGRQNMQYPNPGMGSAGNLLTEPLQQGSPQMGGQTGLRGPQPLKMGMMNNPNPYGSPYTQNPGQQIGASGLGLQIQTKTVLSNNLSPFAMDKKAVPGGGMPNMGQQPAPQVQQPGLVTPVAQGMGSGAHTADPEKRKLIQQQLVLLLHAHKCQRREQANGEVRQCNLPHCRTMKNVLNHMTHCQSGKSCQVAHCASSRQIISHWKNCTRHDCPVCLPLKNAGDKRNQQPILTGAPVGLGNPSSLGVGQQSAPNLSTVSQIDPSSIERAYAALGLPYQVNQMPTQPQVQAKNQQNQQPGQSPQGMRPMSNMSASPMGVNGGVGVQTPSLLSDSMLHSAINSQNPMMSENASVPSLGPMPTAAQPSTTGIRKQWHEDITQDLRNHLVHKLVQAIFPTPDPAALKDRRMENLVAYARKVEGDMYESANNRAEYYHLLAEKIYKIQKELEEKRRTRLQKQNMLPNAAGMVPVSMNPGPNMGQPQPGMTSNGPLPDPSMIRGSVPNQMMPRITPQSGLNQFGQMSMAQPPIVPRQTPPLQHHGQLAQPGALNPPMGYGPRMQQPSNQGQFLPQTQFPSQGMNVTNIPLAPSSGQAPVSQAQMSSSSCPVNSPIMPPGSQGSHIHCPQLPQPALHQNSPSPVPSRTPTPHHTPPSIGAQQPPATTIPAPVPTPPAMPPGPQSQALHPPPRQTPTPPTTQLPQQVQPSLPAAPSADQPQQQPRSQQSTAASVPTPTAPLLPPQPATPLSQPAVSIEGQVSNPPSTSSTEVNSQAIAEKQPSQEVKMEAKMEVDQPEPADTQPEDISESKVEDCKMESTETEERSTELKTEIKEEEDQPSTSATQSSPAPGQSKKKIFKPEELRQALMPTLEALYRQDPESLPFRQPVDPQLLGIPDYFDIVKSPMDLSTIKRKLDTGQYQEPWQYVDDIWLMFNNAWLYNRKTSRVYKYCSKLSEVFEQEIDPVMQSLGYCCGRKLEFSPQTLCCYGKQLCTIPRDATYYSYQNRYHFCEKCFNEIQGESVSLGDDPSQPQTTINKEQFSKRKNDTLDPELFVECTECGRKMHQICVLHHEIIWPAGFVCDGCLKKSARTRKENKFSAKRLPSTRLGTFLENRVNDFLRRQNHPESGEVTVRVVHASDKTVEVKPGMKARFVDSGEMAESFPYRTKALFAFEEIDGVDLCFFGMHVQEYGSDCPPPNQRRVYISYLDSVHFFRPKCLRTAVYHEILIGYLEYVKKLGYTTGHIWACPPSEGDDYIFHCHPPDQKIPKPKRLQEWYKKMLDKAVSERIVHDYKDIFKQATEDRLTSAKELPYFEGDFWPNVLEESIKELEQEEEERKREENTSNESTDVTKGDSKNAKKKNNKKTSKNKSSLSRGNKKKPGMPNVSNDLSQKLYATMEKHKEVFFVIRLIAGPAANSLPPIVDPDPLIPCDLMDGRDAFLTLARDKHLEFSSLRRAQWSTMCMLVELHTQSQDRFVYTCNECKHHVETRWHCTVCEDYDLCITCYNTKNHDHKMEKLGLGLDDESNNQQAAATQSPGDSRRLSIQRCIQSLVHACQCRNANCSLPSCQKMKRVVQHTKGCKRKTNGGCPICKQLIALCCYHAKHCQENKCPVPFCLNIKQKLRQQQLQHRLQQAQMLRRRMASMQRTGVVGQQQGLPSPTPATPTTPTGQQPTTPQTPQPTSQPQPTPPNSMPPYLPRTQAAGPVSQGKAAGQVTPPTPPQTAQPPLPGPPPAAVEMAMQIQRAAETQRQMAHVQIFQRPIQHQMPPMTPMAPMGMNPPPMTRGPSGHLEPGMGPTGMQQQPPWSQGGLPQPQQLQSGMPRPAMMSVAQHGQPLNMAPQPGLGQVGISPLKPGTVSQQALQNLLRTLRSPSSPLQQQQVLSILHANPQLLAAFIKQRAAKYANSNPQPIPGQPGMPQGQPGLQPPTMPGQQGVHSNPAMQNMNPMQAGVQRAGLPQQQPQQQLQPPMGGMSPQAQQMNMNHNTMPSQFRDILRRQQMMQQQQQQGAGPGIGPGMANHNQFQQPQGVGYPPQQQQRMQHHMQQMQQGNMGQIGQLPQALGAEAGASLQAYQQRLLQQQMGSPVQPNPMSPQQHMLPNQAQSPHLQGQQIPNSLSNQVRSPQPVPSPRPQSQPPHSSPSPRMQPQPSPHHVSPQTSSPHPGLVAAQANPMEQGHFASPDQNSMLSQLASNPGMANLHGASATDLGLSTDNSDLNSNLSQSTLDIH

[3] = molecular target: Gal4-PDX-1 (Gal4 fusion protein of PDX-1) (UniProt P04386); assay: cell-based or functional assay
[4] = molecular target: T1, LexA-rat PDX-1 bait fusion protein (PDX-1 amino acids 160-283) (rat, UniProt P52947 160-283); assay: yeast two-hybrid interaction trap; - means no growth on leucine dropout plates and white colonies on X-gal plates
T1 construct: range 160-283; also called carboxy-terminal PDX-1 protein fragment; not shown: LexA moiety encoded by the yeast bait vector pEG202
T1 sequence (P52947 160-283 limits assumed): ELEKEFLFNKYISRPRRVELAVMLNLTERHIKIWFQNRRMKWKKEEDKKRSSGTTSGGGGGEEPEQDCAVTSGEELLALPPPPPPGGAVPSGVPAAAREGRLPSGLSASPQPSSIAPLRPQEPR

[5] = molecular target: T2, GST-p300 (1572-2370) (UniProt Q09472 1572-2370); assay: GST pull-down with [35S]-labelled in vitro translated Bridge-1
T2 construct: also called carboxy-terminal segment of p300; not shown: glutathione S-transferase
T2 sequence (looked up): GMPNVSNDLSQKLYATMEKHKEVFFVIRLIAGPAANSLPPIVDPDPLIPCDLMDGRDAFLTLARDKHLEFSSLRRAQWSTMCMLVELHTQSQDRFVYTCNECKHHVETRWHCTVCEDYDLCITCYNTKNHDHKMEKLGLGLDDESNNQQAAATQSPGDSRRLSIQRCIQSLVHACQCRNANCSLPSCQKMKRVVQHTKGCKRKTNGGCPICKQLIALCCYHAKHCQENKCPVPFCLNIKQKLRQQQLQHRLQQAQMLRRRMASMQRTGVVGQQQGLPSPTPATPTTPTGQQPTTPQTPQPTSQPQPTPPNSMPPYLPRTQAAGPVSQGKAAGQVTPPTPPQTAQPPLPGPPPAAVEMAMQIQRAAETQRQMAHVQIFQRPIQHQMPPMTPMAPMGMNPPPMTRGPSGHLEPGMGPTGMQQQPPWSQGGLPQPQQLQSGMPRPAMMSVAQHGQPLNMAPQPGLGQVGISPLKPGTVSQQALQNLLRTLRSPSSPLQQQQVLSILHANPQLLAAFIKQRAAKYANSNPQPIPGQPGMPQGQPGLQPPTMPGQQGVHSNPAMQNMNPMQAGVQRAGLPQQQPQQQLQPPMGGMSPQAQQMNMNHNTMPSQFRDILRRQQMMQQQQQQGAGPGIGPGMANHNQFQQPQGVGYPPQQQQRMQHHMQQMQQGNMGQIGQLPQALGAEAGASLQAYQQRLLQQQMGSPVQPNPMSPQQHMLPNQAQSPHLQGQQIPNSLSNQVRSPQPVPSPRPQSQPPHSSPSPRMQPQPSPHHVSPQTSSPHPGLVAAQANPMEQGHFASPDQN

[6] = molecular target: T3, p300 (full-length histone acetyltransferase and nuclear receptor coactivator) (UniProt Q09472 2-2414, limits assumed, [35S]-methionine labelled in the pull-down assays); assay: GST pull-down with [35S]-labelled in vitro translated p300
T3 construct: mature; In vitro translated in rabbit reticulocyte lysate for the pull-downs; Expressed from pCMV-p300 in BHK cells for the reporter assay; also called [35S]-p300; radiolabeled in vitro translated full-length p300
T3 sequence (Q09472 2-2414 limits assumed): as the sequence (Q09472 2-2414 limits assumed) above

Chain of human PDX-1/IPF-1 mutant P63fsdelC, [35S]-radiolabeled in vitro translated (human) (P52945 1-62, stated change not applied): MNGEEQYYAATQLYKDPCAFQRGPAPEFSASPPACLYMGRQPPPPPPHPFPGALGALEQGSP

- binding result [5]: no binding
B2: rat Bridge-1 (full-length, 1-222) (other)
chain: MSSEEVRHRAESSEARAAAVSDIQELMRRKEEIEAQIKANYDVLESQKGIGMNEPLVDCEGYPRADVDLYQVRTARHNIICLQNDHKALMKQVEEALHQLHARDKEKQARDMAEAREEAMNRRLASDSPALPKAFARVNSISPGSPASIAGLQVDDEIVEFGSVNTQNFQSLQNVGTVVQHSEGKPLNVMVIRRGEKHQLRLTPTRWAGKGLLGCNITPLQR
modifications: [35S]-methionine labelled in the pull-down assays
notes: In vitro translated from pcDNA3-Bridge-1 in rabbit reticulocyte lysate for the pull-downs; Expressed from the same vector in BHK and HeLa cells for the reporter assays; also called [35S]-Bridge-1; radiolabeled in vitro translated Bridge-1

- binding result [6]: no binding
B3: GST-Bridge-1 (D156P) (other)
chain: MSSEEVRHRAESSEARAAAVSDIQELMRRKEEIEAQIKANYDVLESQKGIGMNEPLVDCEGYPRADVDLYQVRTARHNIICLQNDHKALMKQVEEALHQLHARDKEKQARDMAEAREEAMNRRLASDSPALPKAFARVNSISPGSPASIAGLQVDPEIVEFGSVNTQNFQSLQNVGTVVQHSEGKPLNVMVIRRGEKHQLRLTPTRWAGKGLLGCNITPLQR
notes: also called mutant GST-Bridge-1 fusion protein D156P; not shown: N-terminal glutathione-S-transferase carrier encoded by pGEX-5X-1, plus the short vector-derived linker

Further lines, the molecule ahead of its results:

Molecule: GST-Bridge-1 (glutathione-S-transferase fused to full-length rat Bridge-1) (from UniProt P08515 1-218)
- fold stronger interaction as compared to the wild-type PDX-1 protein [1]: > 2 fold

Molecule: Gal4-Bridge-1 (Gal4 DNA-binding domain fused to full-length rat Bridge-1) (from UniProt P04386 1-147)
- activation of a Gal4-CAT reporter in transfected BHK cells [2]: > 70 fold
- activation of a Gal4-CAT reporter in transfected BHK cells [3]: 76 fold

B1: rat inhibitor of differentiation-3 (Id3) (yeast interaction trap control protein) (other, UniProt P41138 1-119, looked up)
chain: MKALSPVRGCYEAVCCLSERSLAIARGRGKSPSAEEPLSLLDDMNHCYSRLRELVPGVPRGTQLSQVEILQRVIDYILDLQVVLAEPAPGPPDGPHLPIQTAELTPELVISKDKRSFCH
notes: Control protein tested against the PDX-1 bait
- binding result [4]: no binding
